Test results reported in patent publication US11787850B2, “Peptidic TGF-beta antagonists” (priority 2015, dated 2023).

Experiments:
[1] = Size-exclusion chromatography on Superdex Peptide 10/300GL column; assay type: physicochemical; conditions: for formation of aggregates by size-exclusion chromatography: peptide in PBS, Superdex Peptide 10/300GL, 0.6 ml/min; for Aggregation?: size-exclusion chromatography, peptide dissolved in PBS
Experimental: Approximately 200 μg of each peptide X (40 amino acids), X-1 (28 amino acids), peptide A (161 amino acids), P11 (11 amino acids), P16 (16 amino acids), P21 (21 amino acids, P16-2 (16 amino acids, scrambled sequence control), X-3 (16 amino acids) and X-4 (11 amino acids) were dissolved in phosphate-buffered saline (PBS) and loaded onto a Superdex Peptide 10/300GL column. The column was eluted with PBS at a flow rate of 0.6 mL/min and eluents were analyzed for peptide content by measuring relative absorbance at a wavelength of 215 nm. (FIGS. 3A and 3B) The data is plotted with relative absorbance (Y-axis) against elution volume (X-axis). Peptides 1-9 are color coded (A—peptides (1) to (5); B (peptides (6) to (9)). As shown on panel A, peptide X (peptide 1, black line) elution profile indicated two major peaks at approximately 8 mL and 11 mL which correspond to molecular weights greater than 12.4 kDa. The theoretical molecular weight of peptide X is 4.7 kDa which is expected to elute from the column at approximately 15 mL. Under the conditions tested, peptide X existed as high molecular weight aggregates with minimal soluble (monomeric) form. On the other hand, P16 (peptide 5, green line) elution profile indicated a broad peak between 14-22 mL which is expected to contain peptides of between 0.1 and 6 kDa and is consistent with its theoretical molecular weight of 2.01 kDa.
FIG. 4 illustrates the standard curve used for size-exclusion chromatography of standard peptides using the Superdex Peptide 10/300 GL column (results provided in FIG. 3). A pool of standard peptides of various molecular weights (1. cytochrome c (Mr 12.384 kDa) 1 mg/mL; 2. aprotinin (Mr 6.512 kDa) 2 mg/mL; 3. vitamin B12 (Mr 1.355 kDa) 0.1 mg/mL; 4. (Gly)3 (Mr 0.189 kDa) 0.1 mg/mL; 5. Gly (Mr 0.075 kDa) 7.8 mg/mL) were subjected to size-exclusion chromatography using the Superdex Peptide 10/300 GL column (flow rate 0.5 ml/min at room temperature, sample volume of 50 μL, eluent 0.05M phosphate, 0.15 M NaCl, ph 7.0). The resulting chromatogram (absorbance at 215 nm (in mAU, left Y axis) and conductivity (in mS/cm, right Y axis, in function of volume of elution (in mL)) indicates the elution profiles of the above peptides with high MW peptides eluting in earlier fractions and lower MW peptides eluting in later fractions as expected. The molecular weights of peptides were plotted against elution volume generating a standard curve (not shown).
More specifically, approximately […] of each peptide X (40 amino acids), X-1 (28 amino acids), peptide A (161 amino acids), P11 (11 amino acids), P16 (16 amino acids), P21 (21 amino acids, P16-2 (16 amino acids, scrambled sequence control), X-3 (16 amino acids) and X-4 (11 amino acids) were dissolved in phosphate-buffered saline (PBS) and loaded onto a Superdex Peptide 10/300GL column. The column was eluted with PBS at a flow rate of 0.6 ml/min and eluants were analyzed for peptide content by measuring relative absorbance at a wavelength of 215 nm. The data were plotted with relative absorbance (Y-axis) against elution volume (X-axis). […] The theoretical molecular weight of peptide X is 4.7 kDa which is expected to elute from the column at approximately 15 mL. […] P16 (peptide 5) elution profile indicated a peak between 14-22 mL which was expected to contain peptides of between 0.1 and 6 kDa and is consistent with its theoretical molecular weight of 2.01 kDa.
More specifically, a pool of standard proteins of various molecular weights were subjected to size-exclusion chromatography using the Superdex Peptide 10/300 GL column. The resulting chromatogram indicated the elution profiles of the peptides with high molecular weight peptides eluting in earlier fractions and lower molecular weight peptides eluting in later fractions as expected. The molecular weights of peptides were plotted against elution volume generating a standard curve (not shown) and was used to calculate molecular weights of the CD109-based peptides. […]

[2] = tested on: TGF-β1-induced Smad3-driven (CAGA12-lux) transcriptional activity; experiment: Luciferase reporter assay in HEK293-(CAGA)12 cells; assay type: cell-based
[3] = tested on: TGF-β1-induced PAI-1 protein production in A431 cells; experiment: Western blot for PAI-1 in A431 cells; assay type: cell-based; conditions: 10 nM peptide, 100 pM TGF-β1, 24 hrs (FIG. 7)
Experimental: FIG. 7 illustrates that the small molecular weight CD109-based peptide P16 (but not P11 or P16-1) inhibits TGF-β1-induced PAI-protein production. A431 cells were treated without (lane 1) or with 100 pM of TGF-β1 (lanes 2-6) in the absence (lane 2) or presence of 10 nM of P11 (11 aa peptide, lane 3), P16 (16 aa peptide, lane 4), P16-1 (scrambled peptide of 16 aa, lane 5) or Tris buffer (buffer, lane 6) for 24 hrs. Cell lysates were analyzed by Western blot for PAI-1 ([…]) protein levels and normalized to GAPDH protein levels (loading control). In the conditions tested, P16 (but not P11) inhibited TGF-β1-induced PAI-1 expression.
A431 cells were treated for 18 hours without (−) or with (+) 100 pM TGF-β1 in the presence or absence of Peptide X or P16. The peptides were previously dissolved in Tris buffer and left untreated or treated with DMSO prior to addition to the cells. Cell lysates were analyzed by Western blot for PAI-1 (plasminogen activator inhibitor-1) protein expression (top panel) and GAPDH served as a loading control (bottom panel). PAI-1 was not detected in untreated cells (lane 1).
A431 cells were grown in 6-well plates to 70-80% confluency and serum-starved overnight. Cells were washed with PBS and treated with or without TGF-β1 in presence or absence of various CD109-based peptides as indicated in the figure legends. Cells were solubilized with 500 μl of lysis buffer (50 mM Tris, pH 7.5, 150 mM NaCl, 50 mM NaF, 50 mM β-glycerophosphate, 1 mM sodium orthovanadate, 1 mM dithiothreitol, 5 mM EDTA, pH 8.0, 1% Nonidet P-40, 10% glycerol, 10 μM phenylmethylsulfonyl fluoride, 200 μg/ml bovine serum albumin, 1 μg/ml leupeptin, […] soybean trypsin inhibitor, 10 μg/ml benzamide, and 2 μg/ml pepstatin) for 30 min at 4° C. with mild agitation. Cell lysates were collected and centrifuged for 10 min at 10,000×g. The supernatants were collected and protein concentrations were determined using the Bio-Rad protein assay kit. Lysates containing equivalent protein concentrations were mixed with 0.2 volume of 5× electrophoresis sample buffer containing 5% β-mercaptoethanol and boiled for 5 min. Samples were resolved on 7.5% SDS-polyacrylamide gels and transferred to nitrocellulose membranes. Membranes were blocked for 3 h in blocking buffer (30 mM Tris, pH 7.5, 150 mM NaCl, and 0.05% (w/v) Tween 20™ (Tris-buffered saline/Tween) containing 5% (w/v) skim milk powder). The blot was incubated overnight at 4° C. with a 1:1000 dilution of anti-PAI-1 antibody (BD Biosciences). Blots were washed with Tris-buffered saline/Tween and incubated for 45 min at room temperature with a 1:5000 dilution of secondary antibody conjugated to horseradish peroxidase (Pierce). Chemiluminescence detection of the immune complexes was performed using the ECL system (Amersham Biosciences) according to the manufacturer's instructions. The membranes were stripped and reprobed with an anti-GAPDH antibody to confirm equal protein loading.
A431 cells were treated without (lane 1) or with 100 pM of TGF-β1 (lanes 2-6) in the absence (lane 2) or presence of 10 nM of P11 (11 aa peptide, lane 3), P16 (16 aa peptide, lane 4), P16-1 (scrambled peptide of 16 aa, lane 5) or Tris buffer (buffer, lane 6) for 24 hrs. Cell lysates were analyzed by Western blot for PAI-1 ([…]) protein levels and normalized to GAPDH protein levels (loading control).
A431 squamous cell carcinoma cells were treated for 18 hours without (−) or with (+) 100 pM TGF-β1 in the presence or absence of Peptide X or P16. The peptides were dissolved in Tris buffer and left untreated or treated with 0.5% DMSO prior to addition to the cells. Cell lysates were analyzed by Western blot for PAI-1 ([…]) protein expression (top panel) and GAPDH served as a loading control (bottom panel).

[4] = tested on: TGF-β1-induced Smad3-driven (CAGA12-lux) transcriptional activity; experiment: Luciferase reporter assay in HEK293-(CAGA)12 cells; assay type: cell-based; conditions: 100 pM TGF-β1, 18 hours
Experimental: FIGS. 5A and 5B illustrate that some small molecular weight CD109-based peptides (Peptide A, P28, P21 and […]) inhibit TGF-β1-induced Smad3-driven transcriptional activity. […] Cell lysates were analyzed for luciferase activity and data are expressed as mean±standard deviation of relative light units (RLU). […] Under the conditions tested, peptide A, P28, P21 and P16 inhibited TGF-β1-induced transcriptional (CAGA12-lux) activity.
FIG. 6 illustrates that the small molecular weight CD109-based peptide P16 (but not P16-2, P11 or X-4) inhibit TGF-β1-induced Smad3-driven transcriptional activity. HEK293 cells stably transfected with the Smad3-responsive CAGA12-lux luciferase reporter were treated for 18 hours without (−) or with (+) […] TGF-β1 in the presence or absence of 10 nM of P16-2 (16 aa scrambled control), P11 (11 aa sequence), P16 (16 aa), X-4 (11 aa) or Tris-buffer (buffer control) as indicated. Cell lysates were analyzed for luciferase activity and data are expressed as mean±standard deviation of luciferase activity. Results are shown as luciferase activity for the peptides used.
FIG. 8 illustrates that DMSO treatment enhances the TGF-β inhibitory activity of Peptide X but not P21 or P16. HEK293 cells stably transfected with the Smad3-responsive CAGA12-lux luciferase reporter were treated for 18 hours without (−) or with (+) 100 pM TGF-β1 in the presence or absence of Peptide X (PX), P21 or P16. The peptides were previously dissolved in Tris buffer and left untreated or treated with DMSO prior to addition to the cells. Addition of Tris buffer or DMSO alone served as additional controls. Cell lysates were analyzed for luciferase activity and data are expressed as mean±standard deviation of luciferase activity. Results are shown as luciferase activity. […] P16 and P21 inhibited TGF-β1-induced CAGA12-lux activity and these effects were not enhanced by DMSO treatment. […]
FIG. 25 is a graph showing the ability of CD109-based peptides to inhibit TGF-β-induced, Smad3-driven transcriptional activity. HEK293 cells stably transfected with the Smad3-responsive CAGA12-lux luciferase reporter were treated for 18 hours without (−) or with (+) 100 pM TGF-b1 in the presence or absence of 10 nM of P16, P16.2, peptide A, P15, P14, P13, P12, P11, peptide X, P21, or 2% NH4OH buffer (buffer control) as indicated. Cell lysates were analyzed for luciferase activity and data are expressed as mean±standard deviation of luciferase activity.
HEK293 cells stably transfected with the Smad3-responsive CAGA12-lux luciferase reporter construct were incubated with dimeric or monomeric forms of peptide A as indicated and treated with 100 pM TGF-b overnight. Cell lysates were analyzed for luciferase activity. Data are presented as fold-activation compared to TGF-b1 treatment alone (scaled to 1.0). M+D, mixture of monomer and dimer.
Luciferase reporter assays were performed using a HEK293-(CAGA)12 cell line that stably expresses a TGF-β/Smad3-responsive (CAGA)12-luciferase reporter gene [Cash et al. 2013]. HEK293-(CAGA)12 cells were grown in 24-well plates to 70-80% confluency and serum-starved overnight. Cells were washed with PBS and treated with or without TGF-β1 in presence or absence of various CD109-based peptides as indicated in the figure legends. Cells were then washed twice with cold PBS and solubilized in 100 μl of Passive Lysis Buffer (Promega) for 30 min at 4° C. The cell lysates were assayed for luciferase and β-galactosidase activities using commercially available kits (BD Biosciences).
HEK293 cells stably transfected with the Smad3-responsive CAGA12-lux luciferase reporter were treated for 18 hours without (−) or with (+) 100 pM TGF-β1 in the presence or absence of 10 nM (FIG. 5A) or 5 nM (FIG. 5B) of peptide A (Pep A, 161 aa), P28 (28 aa peptide), P21 (21 aa peptide), P16 (16 aa peptide), P16.2 scrambled peptide (16 aa, scrambled P16 sequence) or Tris-buffer (negative control for peptides) as indicated. […]

[5] = 10 nM or 5 nM peptide, 100 pM TGF-β1, 18 hours (FIG. 5)
[6] = 10 nM peptide, 100 pM TGF-β1, 18 hours (FIG. 6)

| Sequence | formation of aggregates by size-exclusion chromatography [1] | Aggregation? [1] | inhibition of TGF-β1-induced CAGA12-lux activity [2, 5] | inhibition of TGF-β1-induced CAGA12-lux activity [2, 6] | inhibition of TGF-β1-induced PAI-1 protein production [3] | inhibition of TGF-β1-induced CAGA12-lux activity, peptide pre-treated with DMSO ([4]; 0.5% DMSO pre-treatment (FIG. 8)) | inhibition of TGF-β1-induced CAGA12-lux activity, peptide in Tris buffer left untreated ([4]; no DMSO (FIG. 8)) |
| --- | --- | --- | --- | --- | --- | --- | --- |
| LDTNMGSRIYQEFEVT [Peptide X-3] | formed aggregates | Aggregated |  |  |  |  |  |
| WINMDTGQLIEQRYTS [Peptide P16-2, reference compound] | did not | Not aggregated | no inhibitory effect | no effect |  |  |  |
| ILNTWMDSTQIGYRWE [Peptide P16-1, scrambled peptide of 16 aa, control, reference compound] |  |  |  |  | no effect |  |  |
| ETWIWLDTNMG [Peptide P11] | did not | Not aggregated |  | did not | not |  |  |
| GSRIYQEFEVT [Peptide X-4] | did not | Not aggregated |  | did not |  |  |  |
| ETWIWLDTNMGSRIYQEFEVT [Peptide P21] | did not | Not aggregated | inhibited |  |  | not enhanced | inhibited |
